The experiment has as its target transforming growth factor beta 1 (UniProt P01137 279-390). The experiment can be described thus: SPR.

Chain of transforming growth factor beta 1 (P01137 279-390): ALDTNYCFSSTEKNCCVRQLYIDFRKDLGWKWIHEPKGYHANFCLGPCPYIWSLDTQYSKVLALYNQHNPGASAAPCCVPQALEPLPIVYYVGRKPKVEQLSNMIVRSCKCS

B1: Leucine-rich α2-glycoprotein (natural protein)
chain: LKECLILQSAEGSTVSCHGPTEFPSSLPADTVHLSVEFSNLTQLPAAALQGCPGLRELHLSSNRLQALSPELLAPVPRLRALDLTRNALRSLPPGLFSTSANLSTLVLRENQLREVSAQWLQGLDALGHLDLAENQLSSLPSGLLASLGALHTLDLGYNLLESLPEGLLRGPRRLQRLHLEGNRLQRLEDSLLAPQPFLRVLFLNDNQLVGVATGSFQGLQHLDMLDLSNNSLSSTPPGLWAFLGRPTRDMQDGFDISHNPWICDKNLADLCRWLVANRNKMFSQNDTRCAGPEAMKGQRLLDVAELGSL
B1: the koff (usually the first-order rate constant of dissociation) is 0.0589 s⁻¹.

The values above are taken from paper PMC4484435 (2015).
